Data published in patent publication US20210380703A1 (RIGEL PHARMACEUTICALS, published 2021).
Changes are numbered by the printed parent chain.

B1: 367_G01 (antibody, V domains shown)
VH: EVQLLESGGGLVQPGGSLRLSCAASGFTFDSYGMNWVRQAPGKGLEWVASINYNSGYTGYADSVKGRFTISRDNSKNTLYLQMNSLRAEDTAVYYCARGANWHDTHLDYWGQGTLVTVSS
VL: DIQMTQSPSSLSASVGDRVTITCRASQSISSYLNWYQQKPGKAPKLVIYAATSRASGVPSRFSGSGSGTDFTLTISSLQPEDFATYYCQQSYDLPLTFGGGTKVEIK
notes: Group III
B2: 368_F09 (antibody, V domains shown)
VH: B1 VH with D30S, A49S, S50G, G59S
VL: B1 VL with S30L, S31T, V47L, T52S, R54L, A55Q, D93E, L94T
notes: Group III
B3: 367_G04 (antibody, V domains shown)
VH: B1 VH with D30S, G33S, S50G, G59S
VL: B1 VL with S30L, L94S
notes: Group III
B4: 369_B05 (antibody, V domains shown)
VH: B1 VH with G33S, A49S, S50G, S55G, T58K, G59S
VL: B1 VL with S30I, V47L, R54L, L94T
notes: Group III
B5: 368_A03 (antibody, V domains shown)
VH: B1 VH with D30S, G33S, A49S, S50G, S55G
VL: B1 VL with S30I, V47L, A51V, D93E, L94N
notes: Group III
B6: 368_A04 (antibody, V domains shown)
VH: B1 VH with S31D, G33S, S50G, S55G, T58K, G59S
VL: B1 VL with S30L, S31T, A51V, D93E
notes: Group III
B7: 368_B09 (antibody, V domains shown)
VH: B1 VH with A49S, S50N, S55G, T58K
VL: B1 VL with S30L, V47L, A55H, L94T
notes: Group III
B8: 368_C08 (antibody, V domains shown)
VH: B1 VH with D30S, S31D, G33S, A49S, S50G, S55G, G59S
VL: B1 VL with S30L, S31T, L33V, V47L, T52S, R54L, A55Q, D93S, L94T
notes: Group III
B9: 368_E12 (antibody, V domains shown)
VH: B1 VH with D30S, S31D, S50G, S55G, G59S
VL: B1 VL with S30V, L33V, A51V, L94S
notes: Group III
B10: 369_A07 (antibody, V domains shown)
VH: B1 VH with D30S, G33S, S50G, S55G, T58K, H106A
VL: B1 VL with S30L, D93E, L94S
notes: Group III
B11: 367_H02 (antibody, V domains shown)
VH: B1 VH with A49S, S55G
VL: not shown
notes: Group III
B12: 367_H03 (antibody, V domains shown)
VH: B1 VH with D30S, S50G, G59S
VL: B1 VL with S30I, S31T, L33V, V47L, R54L
notes: Group III
B13: 368_H05 (antibody, V domains shown)
VH: B1 VH with D30S, G33S, S50N, S55G, T58K, G59S
VL: B1 VL with S30V, L33V, A51T, D93E, L94S
notes: Group III
B14: 368_H02 (antibody, V domains shown)
VH: B1 VH with D30S, S50G, G59S, H106A
VL: B1 VL with S30V, S31T, D93E, L94S
notes: Group III

Target: T1, mouse ACVR2A (mouse, UniProt P27038 20-135, limits assumed)
T1 construct: coated antigen of the initial ELISA
Test: ELISA
How it was run: (§1)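 Monoclonal antibodies were first applied to human or mouse ACVR2A, alongside biotinylated goat anti-human kappa light chain (positive control) and human Fc (negative control); binding was then determined by ELISA.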
Note: test concentration or dose not given here.

T1 sequence (P27038 20-135 limits assumed): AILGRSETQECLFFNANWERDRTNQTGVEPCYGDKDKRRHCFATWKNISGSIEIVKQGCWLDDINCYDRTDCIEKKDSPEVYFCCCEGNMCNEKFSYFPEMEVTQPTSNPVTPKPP

Row | optical density | Binder
1 | 1.94 OD | B1
2 | 2.45 OD | B2
3 | 3.04 OD | B3
4 | 3.06 OD | B4
5 | 2.83 OD | B5
6 | 2.35 OD | B6
7 | 2.81 OD | B7
8 | 2.43 OD | B8
9 | 1.55 OD | B9
10 | 3.56 OD | B10
11 | 1.2 OD | B11
12 | 2.2 OD | B12
13 | 2.2 OD | B13
14 | 2.54 OD | B14

Target: T2, human ACVR2A (human, UniProt P27037 20-135, limits assumed)
T2 construct: coated antigen of the initial ELISA; also called activin receptor, type II A
Test: ELISA
How it was run: as §1

T2 sequence (P27037 20-135 limits assumed): as the sequence (P27038 20-135 limits assumed) above, with R20K, I73V counted along it

Row | optical density | Binder
15 | 1.8 OD | B1
16 | 2.39 OD | B2
17 | 2.98 OD | B3
18 | 2.78 OD | B4
19 | 2.83 OD | B5
20 | 2.35 OD | B6
21 | 2.54 OD | B7
22 | 2.26 OD | B8
23 | 1.29 OD | B9
24 | 3.55 OD | B10
25 | 1.08 OD | B11
26 | 2.04 OD | B12
27 | 1.95 OD | B13
28 | 2.41 OD | B14

Target: T3, biotinylated goat anti-human kappa light chain
T3 construct: positive control of the ELISA
Test: ELISA, positive control
Protocol: The binding of ACVR2A-specific monoclonal antibodies to human ACVR2A, mouse ACVR2A, biotinylated goat anti-human kappa light chain (positive control) and human Fc (negative control) were determined by ELISA.

Row | optical density | Binder
29 | 3.58 OD | B1
30 | 3.58 OD | B2
31 | 3.36 OD | B3
32 | 3.44 OD | B4
33 | 3.41 OD | B5
34 | 3.56 OD | B6
35 | 3.43 OD | B7
36 | 3.38 OD | B8
37 | 3.65 OD | B9
38 | 3.42 OD | B10
39 | 3.62 OD | B11
40 | 3.34 OD | B12
41 | 3.34 OD | B13
42 | 3.58 OD | B14
